{
  "source": "paper PMC10377191",
  "about": "“The Crystal Structure of the Hsp90-LA1011 Complex and the Mechanism by Which LA1011 May Improve the Prognosis of Alzheimer’s Disease” (Biomolecules, 2023)",
  "binders": {"B1": {"name": "FKBP51-Δ7He (lacking residues 401–457 of the extended 7th helix of the TPR domain) (domain or fragment, UniProt Q13451 1-400, looked up)", "chain": "MTTDEGAKNNEESPTATVAEQGEDITSKKDRGVLKIVKRVGNGEETPMIGDKVYVHYKGKLSNGKKFDSSHDRNEPFVFSLGKGQVIKAWDIGVATMKKGEICHLLCKPEYAYGSAGSLPKIPSNATLFFEIELLDFKGEDLFEDGGIIRRTKRKGEGYSNPNEGATVEIHLEGRCGGRMFDCRDVAFTVGEGEDHDIPIGIDKALEKMQREEQCILYLGPRYGFGEAGKPKFGIEPNAELIYEVTLKSFEKAKESWEMDTKEKLEQAAIVKEKGTVYFKGGKYMQAVIQYGKIVSWLEMEYGLSEKESKASESFLLAAFLNLAMCYLKLREYTKAVECCDKALGLDSANEKGLYRRGEAQLLMNEFESAKGDFEKVLEVNPQNKAARLQISMCQKKAKE", "notes": "FKBP51 lacking residues 401–457 (the helical extension of the 7th helix of the TPR domain), that is, ending at residue 400; also called FKBP51-Δ7He mutant; FKBP51 mutant lacking the helical extension; source: gift of constructs from D. Southworth"}},
  "target": "T1, yeast Hsp90 (yeast, UniProt P02829 1-709)",
  "T1 construct": "yeast Hsp90 as used in the ITC experiments; probably the full-length protein was used (surmise)",
  "T1 sequence (P02829 whole entry)": "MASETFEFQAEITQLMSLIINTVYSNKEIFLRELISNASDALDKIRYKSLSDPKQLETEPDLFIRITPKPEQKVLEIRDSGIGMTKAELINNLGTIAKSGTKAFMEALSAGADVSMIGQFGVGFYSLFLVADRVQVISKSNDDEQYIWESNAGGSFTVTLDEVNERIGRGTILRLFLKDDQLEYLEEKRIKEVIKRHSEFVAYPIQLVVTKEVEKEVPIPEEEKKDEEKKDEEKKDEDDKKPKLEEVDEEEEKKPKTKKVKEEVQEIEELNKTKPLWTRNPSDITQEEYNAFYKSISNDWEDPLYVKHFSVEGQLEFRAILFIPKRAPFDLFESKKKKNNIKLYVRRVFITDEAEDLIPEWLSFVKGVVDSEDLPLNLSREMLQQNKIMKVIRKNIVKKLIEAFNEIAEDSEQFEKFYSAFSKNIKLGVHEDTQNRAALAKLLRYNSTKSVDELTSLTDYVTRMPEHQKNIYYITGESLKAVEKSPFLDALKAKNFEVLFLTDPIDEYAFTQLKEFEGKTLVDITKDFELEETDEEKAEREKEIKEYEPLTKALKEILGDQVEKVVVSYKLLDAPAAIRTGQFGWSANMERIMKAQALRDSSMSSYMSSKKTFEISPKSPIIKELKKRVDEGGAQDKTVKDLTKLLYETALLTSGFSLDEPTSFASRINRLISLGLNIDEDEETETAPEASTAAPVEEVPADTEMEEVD",
  "assay": "ITC; 400 μM FKBP51 or FKBP51-Δ7He injected into 30 μM Hsp90; 20 mM Tris pH 7.5, 5 mM NaCl, 30 °C",
  "conditions": "both partners purified",
  "data": [
    {"binder": "B1", "values": [
      {"measurement": "Kd", "value": 11.6, "unit": "µM"},
      {"measurement": "stoichiometry N", "value": 1.25, "unit": "FKBP51-Δ7He per Hsp90"}
    ]}
  ]
}
